One substance from patent US20130344098A1 can be followed below.

For the assay, the target named is anti-Fel d1 mAB 6F9. The experiment in a line: sandwich ELISA: mAB 6F9 coated, Fel d1 protein in doubling dilutions 80-0.16 ng/ml, detected with biotinylated mAB 3E4; Fel d1 (ng/ml) at OD50%. Background: ELISA stands for enzyme-linked immunosorbent assay.

One may read the EC50 as the concentration that produces a half-maximal response. Low values mean an effect from little substance, high ones a need for much substance. Consider “natural Fel d1 (from UniProt P30440 18-109)”, for which the EC50 turned out to be 7.2 ng/mL.
